In patent US12679878B2, “CRF2 receptor agonists and their use in therapy” (SANOFI, priority 2020, dated 2026):
Starred links: 1 amine or outer side, 2 acyl side, 3 side chain; linkers in the order of their positions; H or OH if unused. Non-standard residues stand in square brackets, D forms with d. Groups on a side chain read outwards from the residue. No end group written: not given here. *: point of attachment. C18 diacid = O=C(O)CCCCCCCCCCCCCCCCC(=O)*; γGlu = O=C(O)[C@H](CCC(=O)[*:2])N[*:1]; AEEA = NCCOCCOCC(=O)O; Aib = CC(C)(N)C(=O)O

T1: CRF1R receptor (anti-target) (UniProt P34998 24-415, limits assumed)
T1 sequence (looked up): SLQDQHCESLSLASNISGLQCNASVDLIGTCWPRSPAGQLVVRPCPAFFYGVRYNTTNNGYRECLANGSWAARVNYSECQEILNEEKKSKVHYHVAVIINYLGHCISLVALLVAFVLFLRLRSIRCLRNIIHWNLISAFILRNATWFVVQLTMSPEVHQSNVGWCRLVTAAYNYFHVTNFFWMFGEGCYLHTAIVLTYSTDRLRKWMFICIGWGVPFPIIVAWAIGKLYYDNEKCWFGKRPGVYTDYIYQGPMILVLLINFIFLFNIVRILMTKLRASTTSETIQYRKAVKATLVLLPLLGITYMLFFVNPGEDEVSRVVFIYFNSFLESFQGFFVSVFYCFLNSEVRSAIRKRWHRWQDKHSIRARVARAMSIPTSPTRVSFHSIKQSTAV

B1: peptide of SEQ ID NO: 119 (peptide)
peptide: IVLSLDVPIKLK([AEEA-AEEA-γGlu-C18 diacid])QILLKQERQKK[Aib]RQKAEKNKQILAQV-NH2
modifications: N-terminus assumed
SMILES: CC[C@H](C)[C@H](N)C(=O)N[C@H](C(=O)N[C@@H](CC(C)C)C(=O)N[C@@H](CO)C(=O)N[C@@H](CC(C)C)C(=O)N[C@@H](CC(=O)O)C(=O)N[C@H](C(=O)N1CCC[C@H]1C(=O)N[C@H](C(=O)N[C@@H](CCCCN)C(=O)N[C@@H](CC(C)C)C(=O)N[C@@H](CCCCNC(=O)COCCOCCNC(=O)COCCOCCNC(=O)CC[C@H](NC(=O)CCCCCCCCCCCCCCCCC(=O)O)C(=O)O)C(=O)N[C@@H](CCC(N)=O)C(=O)N[C@H](C(=O)N[C@@H](CC(C)C)C(=O)N[C@@H](CC(C)C)C(=O)N[C@@H](CCCCN)C(=O)N[C@@H](CCC(N)=O)C(=O)N[C@@H](CCC(=O)O)C(=O)N[C@@H](CCCNC(=N)N)C(=O)N[C@@H](CCC(N)=O)C(=O)N[C@@H](CCCCN)C(=O)N[C@@H](CCCCN)C(=O)NC(C)(C)C(=O)N[C@@H](CCCNC(=N)N)C(=O)N[C@@H](CCC(N)=O)C(=O)N[C@@H](CCCCN)C(=O)N[C@@H](C)C(=O)N[C@@H](CCC(=O)O)C(=O)N[C@@H](CCCCN)C(=O)N[C@@H](CC(N)=O)C(=O)N[C@@H](CCCCN)C(=O)N[C@@H](CCC(N)=O)C(=O)N[C@H](C(=O)N[C@@H](CC(C)C)C(=O)N[C@@H](C)C(=O)N[C@@H](CCC(N)=O)C(=O)N[C@H](C(N)=O)C(C)C)[C@@H](C)CC)[C@@H](C)CC)[C@@H](C)CC)C(C)C)C(C)C
B2: peptide of SEQ ID NO: 121 (peptide)
peptide: IVLSLDVPIKLK([AEEA-AEEA-γGlu-C18 diacid])QILLKQERQKKQREKAEKNKQILAQV-NH2
modifications: N-terminus assumed
SMILES: CC[C@H](C)[C@H](N)C(=O)N[C@H](C(=O)N[C@@H](CC(C)C)C(=O)N[C@@H](CO)C(=O)N[C@@H](CC(C)C)C(=O)N[C@@H](CC(=O)O)C(=O)N[C@H](C(=O)N1CCC[C@H]1C(=O)N[C@H](C(=O)N[C@@H](CCCCN)C(=O)N[C@@H](CC(C)C)C(=O)N[C@@H](CCCCNC(=O)COCCOCCNC(=O)COCCOCCNC(=O)CC[C@H](NC(=O)CCCCCCCCCCCCCCCCC(=O)O)C(=O)O)C(=O)N[C@@H](CCC(N)=O)C(=O)N[C@H](C(=O)N[C@@H](CC(C)C)C(=O)N[C@@H](CC(C)C)C(=O)N[C@@H](CCCCN)C(=O)N[C@@H](CCC(N)=O)C(=O)N[C@@H](CCC(=O)O)C(=O)N[C@@H](CCCNC(=N)N)C(=O)N[C@@H](CCC(N)=O)C(=O)N[C@@H](CCCCN)C(=O)N[C@@H](CCCCN)C(=O)N[C@@H](CCC(N)=O)C(=O)N[C@@H](CCCNC(=N)N)C(=O)N[C@@H](CCC(=O)O)C(=O)N[C@@H](CCCCN)C(=O)N[C@@H](C)C(=O)N[C@@H](CCC(=O)O)C(=O)N[C@@H](CCCCN)C(=O)N[C@@H](CC(N)=O)C(=O)N[C@@H](CCCCN)C(=O)N[C@@H](CCC(N)=O)C(=O)N[C@H](C(=O)N[C@@H](CC(C)C)C(=O)N[C@@H](C)C(=O)N[C@@H](CCC(N)=O)C(=O)N[C@H](C(N)=O)C(C)C)[C@@H](C)CC)[C@@H](C)CC)[C@@H](C)CC)C(C)C)C(C)C
B3: peptide of SEQ ID NO: 122 (peptide)
peptide: IVLSLDVPIKLK([AEEA-AEEA-γGlu-C18 diacid])QILLKQERQKKQRQQAEKNKQILAQV-NH2
modifications: N-terminus assumed
SMILES: CC[C@H](C)[C@H](N)C(=O)N[C@H](C(=O)N[C@@H](CC(C)C)C(=O)N[C@@H](CO)C(=O)N[C@@H](CC(C)C)C(=O)N[C@@H](CC(=O)O)C(=O)N[C@H](C(=O)N1CCC[C@H]1C(=O)N[C@H](C(=O)N[C@@H](CCCCN)C(=O)N[C@@H](CC(C)C)C(=O)N[C@@H](CCCCNC(=O)COCCOCCNC(=O)COCCOCCNC(=O)CC[C@H](NC(=O)CCCCCCCCCCCCCCCCC(=O)O)C(=O)O)C(=O)N[C@@H](CCC(N)=O)C(=O)N[C@H](C(=O)N[C@@H](CC(C)C)C(=O)N[C@@H](CC(C)C)C(=O)N[C@@H](CCCCN)C(=O)N[C@@H](CCC(N)=O)C(=O)N[C@@H](CCC(=O)O)C(=O)N[C@@H](CCCNC(=N)N)C(=O)N[C@@H](CCC(N)=O)C(=O)N[C@@H](CCCCN)C(=O)N[C@@H](CCCCN)C(=O)N[C@@H](CCC(N)=O)C(=O)N[C@@H](CCCNC(=N)N)C(=O)N[C@@H](CCC(N)=O)C(=O)N[C@@H](CCC(N)=O)C(=O)N[C@@H](C)C(=O)N[C@@H](CCC(=O)O)C(=O)N[C@@H](CCCCN)C(=O)N[C@@H](CC(N)=O)C(=O)N[C@@H](CCCCN)C(=O)N[C@@H](CCC(N)=O)C(=O)N[C@H](C(=O)N[C@@H](CC(C)C)C(=O)N[C@@H](C)C(=O)N[C@@H](CCC(N)=O)C(=O)N[C@H](C(N)=O)C(C)C)[C@@H](C)CC)[C@@H](C)CC)[C@@H](C)CC)C(C)C)C(C)C
B4: peptide of SEQ ID NO: 123 (peptide)
peptide: IVLSLDVPIKLK([AEEA-AEEA-γGlu-C18 diacid])QILLEQARQK[Aib]QRAQAEKNKRILERV-NH2
modifications: N-terminus assumed
SMILES: CC[C@H](C)[C@H](N)C(=O)N[C@H](C(=O)N[C@@H](CC(C)C)C(=O)N[C@@H](CO)C(=O)N[C@@H](CC(C)C)C(=O)N[C@@H](CC(=O)O)C(=O)N[C@H](C(=O)N1CCC[C@H]1C(=O)N[C@H](C(=O)N[C@@H](CCCCN)C(=O)N[C@@H](CC(C)C)C(=O)N[C@@H](CCCCNC(=O)COCCOCCNC(=O)COCCOCCNC(=O)CC[C@H](NC(=O)CCCCCCCCCCCCCCCCC(=O)O)C(=O)O)C(=O)N[C@@H](CCC(N)=O)C(=O)N[C@H](C(=O)N[C@@H](CC(C)C)C(=O)N[C@@H](CC(C)C)C(=O)N[C@@H](CCC(=O)O)C(=O)N[C@@H](CCC(N)=O)C(=O)N[C@@H](C)C(=O)N[C@@H](CCCNC(=N)N)C(=O)N[C@@H](CCC(N)=O)C(=O)N[C@@H](CCCCN)C(=O)NC(C)(C)C(=O)N[C@@H](CCC(N)=O)C(=O)N[C@@H](CCCNC(=N)N)C(=O)N[C@@H](C)C(=O)N[C@@H](CCC(N)=O)C(=O)N[C@@H](C)C(=O)N[C@@H](CCC(=O)O)C(=O)N[C@@H](CCCCN)C(=O)N[C@@H](CC(N)=O)C(=O)N[C@@H](CCCCN)C(=O)N[C@@H](CCCNC(=N)N)C(=O)N[C@H](C(=O)N[C@@H](CC(C)C)C(=O)N[C@@H](CCC(=O)O)C(=O)N[C@@H](CCCNC(=N)N)C(=O)N[C@H](C(N)=O)C(C)C)[C@@H](C)CC)[C@@H](C)CC)[C@@H](C)CC)C(C)C)C(C)C
B5: peptide of SEQ ID NO: 124 (peptide)
peptide: IVLSLDVPIKLK([AEEA-AEEA-γGlu-C18 diacid])QILLKQARQK[Aib]QRAQAEKNKRILERV-NH2
modifications: N-terminus assumed
SMILES: CC[C@H](C)[C@H](N)C(=O)N[C@H](C(=O)N[C@@H](CC(C)C)C(=O)N[C@@H](CO)C(=O)N[C@@H](CC(C)C)C(=O)N[C@@H](CC(=O)O)C(=O)N[C@H](C(=O)N1CCC[C@H]1C(=O)N[C@H](C(=O)N[C@@H](CCCCN)C(=O)N[C@@H](CC(C)C)C(=O)N[C@@H](CCCCNC(=O)COCCOCCNC(=O)COCCOCCNC(=O)CC[C@H](NC(=O)CCCCCCCCCCCCCCCCC(=O)O)C(=O)O)C(=O)N[C@@H](CCC(N)=O)C(=O)N[C@H](C(=O)N[C@@H](CC(C)C)C(=O)N[C@@H](CC(C)C)C(=O)N[C@@H](CCCCN)C(=O)N[C@@H](CCC(N)=O)C(=O)N[C@@H](C)C(=O)N[C@@H](CCCNC(=N)N)C(=O)N[C@@H](CCC(N)=O)C(=O)N[C@@H](CCCCN)C(=O)NC(C)(C)C(=O)N[C@@H](CCC(N)=O)C(=O)N[C@@H](CCCNC(=N)N)C(=O)N[C@@H](C)C(=O)N[C@@H](CCC(N)=O)C(=O)N[C@@H](C)C(=O)N[C@@H](CCC(=O)O)C(=O)N[C@@H](CCCCN)C(=O)N[C@@H](CC(N)=O)C(=O)N[C@@H](CCCCN)C(=O)N[C@@H](CCCNC(=N)N)C(=O)N[C@H](C(=O)N[C@@H](CC(C)C)C(=O)N[C@@H](CCC(=O)O)C(=O)N[C@@H](CCCNC(=N)N)C(=O)N[C@H](C(N)=O)C(C)C)[C@@H](C)CC)[C@@H](C)CC)[C@@H](C)CC)C(C)C)C(C)C
B6: peptide of SEQ ID NO: 125 (peptide)
peptide: IVLSLDVPIKLK([AEEA-AEEA-γGlu-C18 diacid])QILLEQARQK[Aib]QREQAEKNKRILERV-NH2
modifications: N-terminus assumed
SMILES: CC[C@H](C)[C@H](N)C(=O)N[C@H](C(=O)N[C@@H](CC(C)C)C(=O)N[C@@H](CO)C(=O)N[C@@H](CC(C)C)C(=O)N[C@@H](CC(=O)O)C(=O)N[C@H](C(=O)N1CCC[C@H]1C(=O)N[C@H](C(=O)N[C@@H](CCCCN)C(=O)N[C@@H](CC(C)C)C(=O)N[C@@H](CCCCNC(=O)COCCOCCNC(=O)COCCOCCNC(=O)CC[C@H](NC(=O)CCCCCCCCCCCCCCCCC(=O)O)C(=O)O)C(=O)N[C@@H](CCC(N)=O)C(=O)N[C@H](C(=O)N[C@@H](CC(C)C)C(=O)N[C@@H](CC(C)C)C(=O)N[C@@H](CCC(=O)O)C(=O)N[C@@H](CCC(N)=O)C(=O)N[C@@H](C)C(=O)N[C@@H](CCCNC(=N)N)C(=O)N[C@@H](CCC(N)=O)C(=O)N[C@@H](CCCCN)C(=O)NC(C)(C)C(=O)N[C@@H](CCC(N)=O)C(=O)N[C@@H](CCCNC(=N)N)C(=O)N[C@@H](CCC(=O)O)C(=O)N[C@@H](CCC(N)=O)C(=O)N[C@@H](C)C(=O)N[C@@H](CCC(=O)O)C(=O)N[C@@H](CCCCN)C(=O)N[C@@H](CC(N)=O)C(=O)N[C@@H](CCCCN)C(=O)N[C@@H](CCCNC(=N)N)C(=O)N[C@H](C(=O)N[C@@H](CC(C)C)C(=O)N[C@@H](CCC(=O)O)C(=O)N[C@@H](CCCNC(=N)N)C(=O)N[C@H](C(N)=O)C(C)C)[C@@H](C)CC)[C@@H](C)CC)[C@@H](C)CC)C(C)C)C(C)C

These binders were tested against T1, CRF1R receptor (anti-target) (assay: cell-based or functional assay).
For B1, the “EC50 [nM] 0% HSA (cAMP, HTRF)” value was greater than 100 nM and the “Emax (%) (100% = Sauvagine at 100 nM)” value was 0.4%.
For B2, the “EC50 [nM] 0% HSA (cAMP, HTRF)” value was greater than 100 nM and the “Emax (%) (100% = Sauvagine at 100 nM)” value was -1.1%.
In the case of B3, the “EC50 [nM] 0% HSA (cAMP, HTRF)” value is reported as greater than 100 nM and the “Emax (%) (100% = Sauvagine at 100 nM)” value is reported as 6.9%.
B4 was tested, and the “EC50 [nM] 0% HSA (cAMP, HTRF)” value was greater than 100 nM and the “Emax (%) (100% = Sauvagine at 100 nM)” value was 9%.
With B5 the “EC50 [nM] 0% HSA (cAMP, HTRF)” value was greater than 100 nM and the “Emax (%) (100% = Sauvagine at 100 nM)” value was -2.5%.
In the case of B6, the “EC50 [nM] 0% HSA (cAMP, HTRF)” value is reported as greater than 100 nM and the “Emax (%) (100% = Sauvagine at 100 nM)” value is reported as 17.7%.
